Results: publication PMC5737801 (Nucleic Acids Research, 2017)
Residue numbers refer to the chain shown, from its start. Names may count otherwise.

T1: GST-TyrRS fusion protein, wild type, full length (human, UniProt P54577 1-528)
T1 sequence: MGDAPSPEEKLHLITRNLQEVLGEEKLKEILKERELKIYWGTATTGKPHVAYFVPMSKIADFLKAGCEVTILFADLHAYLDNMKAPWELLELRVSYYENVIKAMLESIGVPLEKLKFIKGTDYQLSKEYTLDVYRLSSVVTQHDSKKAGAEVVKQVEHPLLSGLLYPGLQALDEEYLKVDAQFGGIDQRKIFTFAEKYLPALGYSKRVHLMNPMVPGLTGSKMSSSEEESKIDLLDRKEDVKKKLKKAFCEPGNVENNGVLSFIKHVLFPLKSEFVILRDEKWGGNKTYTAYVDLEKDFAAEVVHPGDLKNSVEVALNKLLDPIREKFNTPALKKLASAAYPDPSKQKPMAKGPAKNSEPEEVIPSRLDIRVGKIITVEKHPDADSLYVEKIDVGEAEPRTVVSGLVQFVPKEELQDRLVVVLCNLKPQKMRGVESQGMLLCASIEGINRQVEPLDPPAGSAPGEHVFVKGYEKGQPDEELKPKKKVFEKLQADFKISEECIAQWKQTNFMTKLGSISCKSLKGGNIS

T2: GST-TyrRS E196K fusion protein, full length (human, UniProt P54577 1-528, E196K)
T2 sequence: T1 sequence with E196K

T3: GST-TyrRS Δ153-156 fusion protein, full length (human, UniProt P54577 1-528, Δ153-156VKQV)
T3 sequence: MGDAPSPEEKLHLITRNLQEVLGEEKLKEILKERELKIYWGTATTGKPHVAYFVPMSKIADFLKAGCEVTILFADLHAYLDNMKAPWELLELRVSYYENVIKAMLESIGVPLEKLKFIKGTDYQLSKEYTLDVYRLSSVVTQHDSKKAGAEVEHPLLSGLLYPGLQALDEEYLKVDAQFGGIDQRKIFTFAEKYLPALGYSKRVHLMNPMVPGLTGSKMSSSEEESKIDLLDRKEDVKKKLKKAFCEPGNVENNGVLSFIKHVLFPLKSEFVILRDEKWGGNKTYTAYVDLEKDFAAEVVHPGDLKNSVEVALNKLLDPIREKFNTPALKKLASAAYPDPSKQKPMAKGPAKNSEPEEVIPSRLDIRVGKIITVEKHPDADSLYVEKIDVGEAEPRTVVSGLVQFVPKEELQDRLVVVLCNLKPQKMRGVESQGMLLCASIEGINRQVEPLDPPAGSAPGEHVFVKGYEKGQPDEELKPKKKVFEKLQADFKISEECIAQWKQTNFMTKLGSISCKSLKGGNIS

B1: full-length tyrosyl-tRNA synthetase Δ153-156 deletion mutant (TyrRS^Δ153-156), C-terminal hexahistidine tag (enzyme)
chain: T3 sequence
B2: full-length tyrosyl-tRNA synthetase G41R mutant (TyrRS^G41R), C-terminal hexahistidine tag (enzyme)
chain: T1 sequence with G41R
B3: full-length tyrosyl-tRNA synthetase, wild type (TyrRS^WT), C-terminal hexahistidine tag (enzyme)
chain: T1 sequence
B4: full-length tyrosyl-tRNA synthetase E196K mutant (TyrRS^E196K), C-terminal hexahistidine tag (enzyme)
chain: T1 sequence with E196K
B5: RBCC (aa 65–378 of TRIM28) (domain or fragment)
chain: CGVCRERLRPEREPRLLPCLHSACSACLGPAAPAAANSSGDGGAAGDGTVVDCPVCKQQCFSKDIVENYFMRDSGSKAATDAQDANQCCTSCEDNAPATSYCVECSEPLCETCVEAHQRVKYTKDHTVRSTGPAKSRDGERTVYCNVHKHEPLVLFCESCDTLTCRDCQLNAHKDHQYQFLEDAVRNQRKLLASLVKRLGDKHATLQKSTKEVRSSIRQVSDVQKRVQVDVKMAILQIMKELNKRGRVLVNDAQKVTEGQQERLERQHWTMTKIQKHQEHILRFASWALESDNNTALLLSKKLIYFQLHRALKM

How the values were obtained:
SEC = target: the molecule itself; test: SEC
SAXS = target: the molecule itself; test: SAXS
[1] = target: T1, GST-TyrRS fusion protein, wild type, …; test: BLI
[2] = target: T2, GST-TyrRS E196K fusion protein, full …; test: BLI
[3] = target: T3, GST-TyrRS Δ153-156 fusion protein, full …; test: BLI

| Binder | Kd (SEC) [nM] | stoichiometry N (SAXS) | also measured |
| --- | --- | --- | --- |
| B1 | ~200 |  |  |
| B2 | ~200 | 2 |  |
| B3 | ~200 |  |  |
| B4 |  | 2 |  |
| B5 |  |  | binding result [1]: binds; fold increase in binding affinity against TyrRS^WT [2]: 5 fold; fold increase in binding affinity against TyrRS^WT [3]: 5 fold |
